In general, Kd refers to the free concentration of one partner at which half of the binding sites on the other are occupied at equilibrium, for simple one-to-one binding.

The test system of assay [1] is phosphorylation of Girdin. Put plainly: EGF-induced phosphorylation of endogenous Girdin in COS7 cells (immunoprecipitation, Western blot with anti-P-Girdin antibody). It is filed as cell-based. To be noted: EGF 50 ng/ml 15 min, PD98059 50 μM. As for the experimental part: Immunoprecipitates with anti-Girdin antibody were subjected to Western blot analyses with anti-P-Girdin and anti-Girdin antibodies. Activation of Akt was monitored by Western blot analyses with anti-phospho Akt antibody.
COS7 cells were transfected with either control or Akt siRNAs, and incubated for 48 hrs. Cells were then stimulated with EGF for 30 min and the phosphorylation of Girdin was analyzed as described in FIG. 2e.
Next, whether the anti-P-Girdin Ab can detect the endogenous Girdin phosphorylated in response to external stimuli that physiologically activate endogenous Akt was given consideration to. […] Furthermore, the phosphorylation of Girdin was inhibited when cells were treated with the PI3K inhibitors LY294002 and Wortmannin, but not with the mitogen-activated protein kinase kinase 1 (MEK1) inhibitor PD98059. It has therefore been concluded that the phosphorylation of Girdin is induced by EGF in a PI3K-dependent manner. […] Moreover, Girdin phosphorylation was undetectable in the cells transfected with Akt small interfering RNA (Akt siRNA). These findings confirmed that Akt activation is necessary for Girdin phosphorylation.
A general note: A western blot detects proteins with antibodies after separation by electrophoresis.

The test system of another assay is F-actin. As to the kind of experiment: F-actin cosedimentation assay. It is filed as binding. How it is done: A fixed amount of GST-CT2 was mixed with various amounts of F-actin, followed by ultracentrifugation. Amounts of the free and bound GST-CT2 were quantified, and the percentage of bound GST-CT2 was plotted against the concentration of F-actin, and the Kd value was calculated by Scatchard analysis.
GST-CT was phosphorylated by Akt in vitro (cf. FIG. 6d, (b)) and was subjected to an actin cosedimentation assay. A fixed amount of GST-CT was phosphorylated in vitro and mixed with various amounts of F-actin, followed by ultracentrifugation. The amount of phosphorylated GST-CT bound to F-actin in the pellet fraction was monitored by Western blot analyses with anti-P-Girdin antibody.
F-actin cosedimentation assays were performed according to the manufacturer's protocol (Cytoskeleton). […] The cosedimented proteins were resolved by SDS-PAGE and detected by either Coomassie Brilliant Blue (CBB) staining or Western blot analyses using anti-GST antibody (Cell Signaling Technology) or anti-phospho Girdin Ab. For quantitative analyses, a fixed concentration of GST-Girdin CT2 (1 μM) was mixed with increasing amounts of F-actin (0-2.5 μM) in polymerization buffer and incubated at room temperature for 30 min. […] Protein bands were detected by CBB staining, and scanned and quantified using the software program WinROOF (Mitani Corp., Fukui, Japan).

Assay [2] is described as follows: Protein-lipid overlay assay (PIP-Strip), PI(4)P. To be noted: 4° C. The assay is classed as binding. How it is done:
(§1) The lipid binding of both GST-CT and GST-CT ΔPB was detected using anti-Girdin antibody, whereas that of phosphorylated GST-CT was detected by anti-P-Girdin antibody. The various lipids spotted on the membrane are indicated in (d).
(§2) GST fusion proteins were expressed in DH5 ? or BL21-CodonPlus (Stratagene) cells and purified using conventional methods. Binding of the purified GST-CT to phospholipids was examined at 4° C. using a PIP-Strip (Echelon Bioscience) according to the manufacturer's protocol. Bound GST-CT proteins were detected with either anti-Girdin or anti-phospho Girdin antibodies.

Assay [3] can be described thus: Protein-lipid overlay assay (PIP-Strip), PI(3)P. It is filed as binding. To be noted: 4° C. How it is done: as §1, §2

On to `COc1cccc(-c2cc(=O)c3ccccc3o2)c1N` [PD98059], for which the “phosphorylation of Girdin” value in assay [1] was “not”.

B1: phosphorylated GST-CT: purified GST-CT phosphorylated by Akt in vitro (protein)
chain: IMDQYKFYDPSPPRRRGNWITLKMRKLIKSKKDINRERQKSLTLTPTRSDSSEGFLQLPHQDSQDSSSVGSNSLEDGQTLGTKKSSMVALKRLPFLRNRPKDKDKMKACYRRSMSMNDLVQSMVLAGQWTGSTENLEVPDDISTGKRRKELGAMAFSTTAINFSTVNSSAGFRSKQLVNNKDTTSFEDISPQGVSDDSSTGSRVHASRPASLDSGRTSTSNSNNNASLHEVKAGAVNNQSRPQSHSSGEFSLLHDHEAWSSSGSSPIQYLKRQTRSSPVLQHKISETLESRHHKIKTGSPGSEVVTLQQFLEESNKLTSVQIKSSSQENLLDEVMKSLSVSSDFLGKDKPVSCGLARSVSGKTPGDFYDRRTTKPEFLRPGPRKTEDTYFISSAGKPTPGTQGKIKLVKESSLSRQSKDSNPYATLPRASSVISTAEGTTRRTSIHDFLTKDSRLPISVDSPPAAADSNTTAASNVDKVQESRNSKSRSREQQSS
modifications: left off: a dimerising Fc or GST
notes: purified GST-CT phosphorylated by Akt in vitro
On to B1, for which the “affinity for F-actin after phosphorylation by Akt” value in the assay on F-actin (GST-CT phosphorylated in vitro, detected with anti-P-Girdin antibody) is listed as “did not attenuate”. The “binding to PI(4)P” value in assay [2] is “bound to neither”. Also, in assay [3], the “binding to PI(3)P” value is “bound to neither”.

B2: GST-CT2: purified glutathione S-transferase (GST)-fused CT2, C-terminal half of the Girdin CT domain (protein)
chain: GEFSLLHDHEAWSSSGSSPIQYLKRQTRSSPVLQHKISETLESRHHKIKTGSPGSEVVTLQQFLEESNKLTSVQIKSSSQENLLDEVMKSLSVSSDFLGKDKPVSCGLARSVSGKTPGDFYDRRTTKPEFLRPGPRKTEDTYFISSAGKPTPGTQGKIKLVKESSLSRQSKDSNPYATLPRASSVISTAEGTTRRTSIHDFLTKDSRLPISVDSPPAAADSNTTAASNVDKVQESRNSKSRSREQQSS
modifications: left off: a dimerising Fc or GST
notes: purified glutathione S-transferase (GST)-fused CT2, C-terminal half of the Girdin CT domain
B2: the Kd at F-actin (GST-CT2 1 μM, F-actin 0-2.5 μM, Scatchard analysis, read-out: dissociation constant (Kd) for F-actin) came out at 1.03 µM.

Values taken from patent publication US9206242B2, “Application of actin-binding protein to disease associated with cell motility” (NATIONAL UNIVERSITY CORPORATION NAGOYA UNIVERSITY, priority 2005, dated 2015).
